Target: Uracil DNA glycosylase (UNG), endogenous in HuH-7 and U-2OS cells (UniProt P13051)
Assay: cell-based or functional assay

UniProt P13051, sequence (P13051 whole entry): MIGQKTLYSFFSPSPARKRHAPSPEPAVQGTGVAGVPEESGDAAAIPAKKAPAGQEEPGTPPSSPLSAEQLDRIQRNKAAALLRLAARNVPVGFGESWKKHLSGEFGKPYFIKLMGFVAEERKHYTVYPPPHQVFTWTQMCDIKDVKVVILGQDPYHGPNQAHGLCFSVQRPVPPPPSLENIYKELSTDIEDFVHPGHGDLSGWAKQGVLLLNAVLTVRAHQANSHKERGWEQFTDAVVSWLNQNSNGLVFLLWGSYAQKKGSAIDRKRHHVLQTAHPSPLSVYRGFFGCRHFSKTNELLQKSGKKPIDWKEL

Which results are given for “Uracil Glycosylase Inhibitor (UGI), overexpressed from plasmid pCDNA3.1-UGI (from UniProt P14739 1-84)”?
Fold change relative to GFP in % of edited reads, C-to-A/G or indel, HuH-7 cells, BC22 + UGI overexpression (fold change relative to GFP): -4.53; Fold change relative to GFP in % of edited reads, C-to-A/G or indel, HuH-7 cells, BC22 + UGI overexpression + siRNA against UNG (fold change relative to GFP): -4.76; Fold change relative to GFP in % of edited reads, C-to-A/G or indel, HuH-7 cells, BC27 + UGI overexpression (fold change relative to GFP): -9.3; Fold change relative to GFP in % of edited reads, C-to-A/G or indel, HuH-7 cells, BC27 + UGI overexpression + siRNA against UNG (fold change relative to GFP): -10.8; Fold change relative to GFP in % of edited reads, C-to-A/G or indel, U-2OS cells, BC22 + UGI overexpression (fold change relative to GFP): -2.97; Fold change relative to GFP in % of edited reads, C-to-A/G or indel, U-2OS cells, BC22 + UGI overexpression + siRNA against UNG (fold change relative to GFP): -3.46; Fold change relative to GFP in % of edited reads, C-to-A/G or indel, U-2OS cells, BC27 + UGI overexpression (fold change relative to GFP): -3.09; Fold change relative to GFP in % of edited reads, C-to-A/G or indel, U-2OS cells, BC27 + UGI overexpression + siRNA against UNG (fold change relative to GFP): -3.48; Fold change relative to GFP in % of edited reads, C-to-T, HuH-7 cells, BC22 + UGI overexpression (fold change relative to GFP): 1.56; Fold change relative to GFP in % of edited reads, C-to-T, HuH-7 cells, BC22 + UGI overexpression + siRNA against UNG (fold change relative to GFP): 1.57; Fold change relative to GFP in % of edited reads, C-to-T, HuH-7 cells, BC27 + UGI overexpression (fold change relative to GFP): 2.13; Fold change relative to GFP in % of edited reads, C-to-T, HuH-7 cells, BC27 + UGI overexpression + siRNA against UNG (fold change relative to GFP): 2.15; Fold change relative to GFP in % of edited reads, C-to-T, U-2OS cells, BC22 + UGI overexpression (fold change relative to GFP): 1.21; Fold change relative to GFP in % of edited reads, C-to-T, U-2OS cells, BC22 + UGI overexpression + siRNA against UNG (fold change relative to GFP): 1.22; Fold change relative to GFP in % of edited reads, C-to-T, U-2OS cells, BC27 + UGI overexpression (fold change relative to GFP): 1.92; Fold change relative to GFP in % of edited reads, C-to-T, U-2OS cells, BC27 + UGI overexpression + siRNA against UNG (fold change relative to GFP): 1.97; Share of total edits that are C-to-T-only edits, HuH-7 cells, BC22 or BC27 + UGI overexpression: 94%

From patent US20240002820A1
